Assay results as given in patent US20220251151A1.

Legend:
Assay in all cases: cell-based or functional assay
[1] = molecular target: human Kv1.1 potassium channel (α-subunit) (human) (UniProt Q09470)
[2] = molecular target: human Kv1.6 potassium channel (α-subunit) (human) (UniProt P17658)
[3] = molecular target: human Kv1.2 potassium channel (α-subunit) (human) (UniProt P16389)
[4] = molecular target: human Kv1.3 potassium channel (potassium voltage-gated channel subfamily A member 3, α-subunit) (human) (UniProt P22001)
human Kv1.3 potassium channel (potassium voltage-gated channel subfamily A member 3, α-subunit) (human), sequence (P22001 whole entry): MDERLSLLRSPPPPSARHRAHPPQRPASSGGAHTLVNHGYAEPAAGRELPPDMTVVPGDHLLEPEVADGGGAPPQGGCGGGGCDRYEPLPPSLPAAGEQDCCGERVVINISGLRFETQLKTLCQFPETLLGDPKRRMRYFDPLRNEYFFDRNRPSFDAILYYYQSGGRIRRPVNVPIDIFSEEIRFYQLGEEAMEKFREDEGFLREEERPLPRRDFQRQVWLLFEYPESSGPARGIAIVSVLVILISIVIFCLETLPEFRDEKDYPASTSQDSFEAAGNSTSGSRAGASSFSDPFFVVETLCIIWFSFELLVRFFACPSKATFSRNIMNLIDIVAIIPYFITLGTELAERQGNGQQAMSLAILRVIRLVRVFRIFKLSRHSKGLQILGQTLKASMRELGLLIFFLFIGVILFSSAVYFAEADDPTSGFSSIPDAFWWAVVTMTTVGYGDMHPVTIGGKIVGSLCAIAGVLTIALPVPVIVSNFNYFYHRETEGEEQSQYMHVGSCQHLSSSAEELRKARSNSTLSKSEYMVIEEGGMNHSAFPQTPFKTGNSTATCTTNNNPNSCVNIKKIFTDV

human Kv1.2 potassium channel (α-subunit) (human), sequence (P16389 whole entry): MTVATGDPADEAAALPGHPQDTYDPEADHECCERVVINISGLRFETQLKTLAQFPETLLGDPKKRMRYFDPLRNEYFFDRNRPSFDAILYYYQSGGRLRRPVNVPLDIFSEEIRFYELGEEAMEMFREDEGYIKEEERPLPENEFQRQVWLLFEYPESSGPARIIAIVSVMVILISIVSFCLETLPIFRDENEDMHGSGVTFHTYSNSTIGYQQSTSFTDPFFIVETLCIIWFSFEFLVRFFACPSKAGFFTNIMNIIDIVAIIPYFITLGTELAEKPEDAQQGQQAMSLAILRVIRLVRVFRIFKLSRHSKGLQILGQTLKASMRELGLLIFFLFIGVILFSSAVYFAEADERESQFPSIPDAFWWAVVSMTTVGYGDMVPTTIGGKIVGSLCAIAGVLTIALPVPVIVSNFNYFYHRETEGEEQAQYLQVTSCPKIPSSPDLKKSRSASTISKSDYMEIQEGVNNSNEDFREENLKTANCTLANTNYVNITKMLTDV
human Kv1.1 potassium channel (α-subunit) (human), sequence (Q09470 whole entry): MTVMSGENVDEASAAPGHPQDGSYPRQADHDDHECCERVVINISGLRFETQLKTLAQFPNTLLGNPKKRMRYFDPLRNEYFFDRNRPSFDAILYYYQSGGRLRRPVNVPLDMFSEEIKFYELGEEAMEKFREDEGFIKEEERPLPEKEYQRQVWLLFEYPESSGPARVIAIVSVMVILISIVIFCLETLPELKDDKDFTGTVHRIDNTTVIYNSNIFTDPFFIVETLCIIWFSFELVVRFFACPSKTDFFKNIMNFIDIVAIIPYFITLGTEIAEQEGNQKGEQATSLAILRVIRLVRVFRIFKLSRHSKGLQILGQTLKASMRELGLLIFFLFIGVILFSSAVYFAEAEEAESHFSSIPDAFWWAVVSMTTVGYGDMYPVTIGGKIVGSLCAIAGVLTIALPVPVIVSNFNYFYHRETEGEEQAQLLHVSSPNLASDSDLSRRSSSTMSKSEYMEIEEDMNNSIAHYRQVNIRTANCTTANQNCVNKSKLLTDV
human Kv1.6 potassium channel (α-subunit) (human), sequence (P17658 whole entry): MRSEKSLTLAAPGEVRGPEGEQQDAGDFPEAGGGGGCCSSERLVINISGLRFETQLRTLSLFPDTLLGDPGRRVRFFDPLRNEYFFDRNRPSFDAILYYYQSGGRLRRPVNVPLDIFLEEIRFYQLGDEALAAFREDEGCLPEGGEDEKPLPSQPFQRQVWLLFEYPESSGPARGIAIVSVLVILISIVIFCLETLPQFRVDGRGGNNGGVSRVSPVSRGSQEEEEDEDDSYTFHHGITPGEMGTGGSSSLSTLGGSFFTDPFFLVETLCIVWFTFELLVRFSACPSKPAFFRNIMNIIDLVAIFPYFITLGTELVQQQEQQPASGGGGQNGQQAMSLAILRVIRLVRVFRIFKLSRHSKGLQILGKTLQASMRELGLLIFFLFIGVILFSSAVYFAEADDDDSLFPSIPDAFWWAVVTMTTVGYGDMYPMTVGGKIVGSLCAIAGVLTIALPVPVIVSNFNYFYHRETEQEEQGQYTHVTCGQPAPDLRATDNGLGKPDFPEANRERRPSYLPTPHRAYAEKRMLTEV

With Vm24 (peptide) the Potency IC50 (patch clamp) [1] was 0.097 nM, the Selectivity Kv1.1/Kv1.3 [1] was 0.65 and the Potency IC50 (patch clamp) [2] was 21 nM. It also gave a Selectivity Kv1.6/Kv1.3 [2] of 139, a Potency IC50 (patch clamp) [3] of 4.7 nM and a Selectivity Kv1.2/Kv1.3 [3] of 31. The Potency IC50 (patch clamp) [4] was 0.15 nM.
In the case of ShK (peptide), the Potency IC50 (patch clamp) [2] is reported as 0.19 nM, the Potency IC50 (patch clamp) [3] is reported as 11 nM and the Potency IC50 (patch clamp) [4] is reported as 0.017 nM.
Moka1 (peptide) showed a Potency IC50 (patch clamp) [1] greater than 3000 nM, a Selectivity Kv1.1/Kv1.3 [1] greater than 300 and a Potency IC50 (patch clamp) [2] greater than 3000 nM. It also gave a Selectivity Kv1.6/Kv1.3 [2] greater than 300, a Potency IC50 (patch clamp) [3] of 275 nM and a Selectivity Kv1.2/Kv1.3 [3] of 31. For the same substance, the Potency IC50 (patch clamp) [4] was 9 nM.
